Test results: patent publication US20250297009A1

What was measured:
[1] = target: Human TGF-β1 (Acrobiosystems, TG1-H421) (human) (UniProt P01137); experiment: ELISA, human TGF-β1 coated, mouse anti-human Fc-HRP detection
[2] = target: Human TGF-β3 (PeproTech, 100-36E) (human) (UniProt P10600); experiment: ELISA, human TGF-β3 coated, mouse anti-human Fc-HRP detection
Human TGF-β3 (PeproTech, 100-36E) (human), sequence (P10600 301-412 limits assumed): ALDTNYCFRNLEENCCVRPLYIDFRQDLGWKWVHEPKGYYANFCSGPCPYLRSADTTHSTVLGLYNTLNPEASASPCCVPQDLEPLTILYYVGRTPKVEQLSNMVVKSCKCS

Human TGF-β1 (Acrobiosystems, TG1-H421) (human), sequence (P01137 279-390 limits assumed): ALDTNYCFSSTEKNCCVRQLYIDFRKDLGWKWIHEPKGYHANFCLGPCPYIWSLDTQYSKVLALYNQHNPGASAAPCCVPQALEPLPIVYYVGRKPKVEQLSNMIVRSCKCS

In the case of TGF-βRII (Fc fusion), the EC50 (read off the curve) [1] is reported as 0.3 nM and the EC50 (read off the curve) [2] is reported as 0.2 nM.
